The target of experiment [1] is T1, β-arrestin2 (endogenous, RAW 264.7 cells) (mouse, UniProt Q91YI4 1-410).
T1 construct: Endogenous protein in cell lysate; also called βarr2
Briefly: co-IP, RAW 264.7 cells, DHA 30 min (FIG. 3E). Here is the method:
(§1) FIG. 3. GPR120 internalization with β-arrestin2 mediates anti-inflammatory effects. (A) RAW 264.7 cells were transfected with siRNA as indicated and stimulated with or without 100 μM of DHA 1 hr prior to LPS (100 ng/ml) treatment for 10 min and then subjected to western blotting. […] (C) Phosphorylation of TAK1 and MKK4 in RAW 264.7 cells with or without siRNA transfection as indicated. (D) HEK 293 cells were co-transfected with HA-GPR120 and β-arrestin2.GFP to analyze GPR120 internalization after DHA stimulation for the indicated times. GPR120 (left column) and β-arrestin2 (middle column) were localized by confocal microscopy. (E) Co-immunoprecipitation between GPR120 and β-arrestin2 with DHA stimulation for 30 min in RAW 264.7 cells and, (F) HEK 293 cells (HA-GPR120 and (β-arrestin2*GFP), respectively. Lysate indicates 1/10 input in each experiment. Interaction between TAB1 and β-arrestin2 (G), and interaction between TAB1 and TAK1 (H) were detected by co-immunoprecipitation and the scanned bar graph quantitates the association in RAW 264.7 cells. (I) Schematic diagram of the β-arrestin2 and GPR120-mediated anti-inflammatory mechanism. The left half of the diagram indicate the DHA-mediated anti-inflammatory effect, and the right half of the diagram indicate the LPS- and TNF-α-induced inflammatory pathway. See also FIG. 9. […]

Experiment [2] deals with T2, transforming growth factor-β activated kinase 1 (TAK1), endogenous, RAW 264.7 cells (mouse, UniProt Q62073 1-579).
T2 construct: Endogenous protein in cell lysate
T2 sequence (looked up): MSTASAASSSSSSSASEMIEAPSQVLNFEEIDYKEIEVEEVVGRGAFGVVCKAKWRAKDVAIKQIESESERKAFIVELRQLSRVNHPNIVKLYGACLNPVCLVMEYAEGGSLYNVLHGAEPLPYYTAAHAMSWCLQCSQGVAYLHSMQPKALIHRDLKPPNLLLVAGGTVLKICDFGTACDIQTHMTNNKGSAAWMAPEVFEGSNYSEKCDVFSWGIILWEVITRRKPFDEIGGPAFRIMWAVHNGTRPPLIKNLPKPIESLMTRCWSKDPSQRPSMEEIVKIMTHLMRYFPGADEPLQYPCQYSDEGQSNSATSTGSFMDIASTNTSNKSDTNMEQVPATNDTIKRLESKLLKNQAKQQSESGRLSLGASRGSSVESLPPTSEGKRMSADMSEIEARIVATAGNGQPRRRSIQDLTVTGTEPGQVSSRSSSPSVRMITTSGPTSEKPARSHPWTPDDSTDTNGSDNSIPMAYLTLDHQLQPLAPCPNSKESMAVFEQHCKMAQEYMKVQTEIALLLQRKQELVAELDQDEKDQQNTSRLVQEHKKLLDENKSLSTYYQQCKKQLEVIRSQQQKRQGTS
Briefly: co-IP, RAW 264.7 cells (FIG. 3H). On the procedure: as §1

T1 sequence (Q91YI4 whole entry): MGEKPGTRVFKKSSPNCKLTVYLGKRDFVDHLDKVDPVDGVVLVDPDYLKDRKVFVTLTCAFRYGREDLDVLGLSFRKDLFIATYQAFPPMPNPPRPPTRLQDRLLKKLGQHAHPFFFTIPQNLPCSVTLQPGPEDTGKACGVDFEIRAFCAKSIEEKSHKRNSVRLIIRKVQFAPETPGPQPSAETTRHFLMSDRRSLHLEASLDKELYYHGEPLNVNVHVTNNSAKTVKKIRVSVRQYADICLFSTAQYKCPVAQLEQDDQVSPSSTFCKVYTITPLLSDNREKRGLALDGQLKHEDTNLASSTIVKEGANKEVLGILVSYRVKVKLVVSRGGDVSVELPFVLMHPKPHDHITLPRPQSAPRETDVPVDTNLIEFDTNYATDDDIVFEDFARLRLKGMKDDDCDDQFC

B1: GPR120 (endogenous, RAW 264.7 cells) (receptor, mouse, UniProt Q7TMA4 1-361, looked up)
chain: MSPECAQTTGPGPSHTLDQVNRTHFPFFSDVKGDHRLVLSVVETTVLGLIFVVSLLGNVCALVLVARRRRRGATASLVLNLFCADLLFTSAIPLVLVVRWTEAWLLGPVVCHLLFYVMTMSGSVTILTLAAVSLERMVCIVRLRRGLSGPGRRTQAALLAFIWGYSALAALPLCILFRVVPQRLPGGDQEIPICTLDWPNRIGEISWDVFFVTLNFLVPGLVIVISYSKILQITKASRKRLTLSLAYSESHQIRVSQQDYRLFRTLFLLMVSFFIMWSPIIITILLILIQNFRQDLVIWPSLFFWVVAFTFANSALNPILYNMSLFRNEWRKIFCCFFFPEKGAIFTDTSVRRNDLSVISS
notes: whole, on cells; also called ω-3 FA receptor/sensor
Regarding B1, the binding result in experiment [1] was “binds”.

B2: TAK1 binding protein 1 (TAB1), endogenous, RAW 264.7 cells (other, mouse, UniProt Q8CF89 1-502, looked up)
chain: MAAQRRSLLQSEQQPSWTDDLPLCHLSGVGSASNRSYSADGKGTESHPPEDNWLKFRSENNCFLYGVFNGYDGNRVTNFVAQRLSAELLLGQLNTEHTEADVRRVLLQAFDVVERSFLESIDDALAEKASLQSQLPEGVPQHQLPPQYQKILERLKALEREISGGAMAVVAVLLNSKLYVANVGTNRALLCKSTVDGLQVTQLNMDHTTENEDELFRLSQLGLDAGKIKQMGVICGQESTRRIGDYKVKYGYTDIDLLSAAKSKPIIAEPEIHGAQPLDGVTGFLVLMSEGLYKALEAAHGPGQANQEIAAMIDTEFAKQTSLDAVAQAVVDRVKRIHSDTFASGGERAKFCPRHEDMTLLVRNFGYPLGEMSQPTPTPAPGGRVYPVSVPYSSAQSTSKTSVTLSLVMPSQGQMVNGSHSASTLDEATPTLTNQSPTLTLQSTNTHTQSSSSSSDGGLFRSRPAHSLPPGEDGRVEPYVDFAEFYRLWSVDHGEQSVMTAP
notes: Endogenous protein in cell lysate
As for B2, the binding result in experiment [2] is reported as “binds”.

The record behind these values is patent US20120295975A1 (University of California, published 2012).
